{"source": "patent US5587468", "about": "“High affinity nucleic acid ligands to HIV integrase” (University Research Corporation)", "key": {"HIV-1 integrase [1]": {"target": "T1, HIV-1 integrase (Human immunodeficiency virus 1 (BH10), UniProt P03366 P03366:1160-1447)", "test": "FP filter; binding completely abolished", "settings": "tags: gift of Agouron Pharmaceuticals; BH10 clone"}, "HIV-1 integrase [2]": {"target": "T1, HIV-1 integrase", "test": "competition; inhibits binding of con+/- U5 DNA, 180 mM NaCl", "settings": "tags: gift of Agouron Pharmaceuticals; BH10 clone; stem-loops with GNRA tetraloop and putative pseudoknot (11-14 with 28-31)", "protocol": "50 nM integrase was mixed with 20 nM double-stranded con± which mimics the U5 region of the HIV genome and incubated at 37° C. for 5 minutes. After this time, varying amounts of P5 or 30N RNA (i.e., random pool RNA) was added and the reaction mix (30 µl final volume) was incubated further for 20 minutes. The reactions were then placed at room temperature and passed over nitrocellulose filters. Filters were washed three times with 1 ml of 50 mM Tris-Cl pH 7.5. Filters were dried under a heat lamp and counted in a cocktail for 1 minute each. In the absence of RNA under these conditions, approximately 10% of the double-stranded DNA was retained on filter."}, "HIV-1 integrase [3]": {"target": "T1, HIV-1 integrase", "test": "FP filter; nitrocellulose filter; 250 mM NaCl, 10 mM MnCl2, pH 7.5, 37 C", "settings": "tags: gift of Agouron Pharmaceuticals; BH10 clone; stem-loops with GNRA tetraloop and putative pseudoknot (11-14 with 28-31)", "method": "(§1) Binding assays were done by adding 5 µl of HIV-1 integrase protein, at the appropriate concentrations (i.e., ranging from 2 ×10^-6 with 3 fold dilutions to 9 ×10^-9 for 250 mM NaCl and 0.5 ×10^-7 with 3 fold dilutions to 2 ×10^-10 for 50 mM NaCl), to 45 µl of binding buffer (50 mM Na-HEPES pH 7.5, 250 mM NaCl, 2 mM DTT, 10 mM MnCl_2, 5 mM CHAPS) on ice, then adding 50,000 cpm of kinased RNA (<200 fmoles) in a volume of 3 to 4 µl. This mix is incubated at 37° C. for 20 minutes. The reactions were then passed over nitrocellulose filters, which were pre-equilibrated in buffer, and washed with a 50 mM Tris-Cl pH 7.5 solution. Filters were dried and counted in cocktail. The proteins used in these experiments were frozen and thawed only once. Each binding curve consisted of seven points and each point is an average since experiments were done in triplicate."}, "HIV-1 integrase [4]": {"target": "T1, HIV-1 integrase", "test": "FP filter; nitrocellulose filter; 50 mM NaCl", "settings": "tags: gift of Agouron Pharmaceuticals; BH10 clone; stem-loops with GNRA tetraloop and putative pseudoknot (11-14 with 28-31)", "method": "as §1"}, "HIV-1 integrase [5]": {"target": "T1, HIV-1 integrase", "test": "FP filter; nitrocellulose filter; 250 mM NaCl", "settings": "tags: gift of Agouron Pharmaceuticals; BH10 clone", "method": "as §1"}, "HIV-1 integrase [6]": {"target": "T1, HIV-1 integrase", "test": "FP filter; deletion had no noticeable effect on binding", "settings": "tags: gift of Agouron Pharmaceuticals; BH10 clone"}}, "data": [{"binder": "P5 deletion of 1-14 (ssRNA) RNA: AACGCUCAACCAGUCUUGUGGCUUUGAAAGAGAGGAGUGUUCGACAUGAGGCCCGGAUCCGGC", "values": [{"measurement": "binding result", "setting": "HIV-1 integrase [1]", "value": "no binding"}]}, {"binder": "P5 (ssRNA) RNA: GGGAGCUCAGAAUAAACGCUCAACCAGUCUUGUGGCUUUGAAAGAGAGGAGUGUUCGACAUGAGGCCCGGAUCCGGC", "values": [{"measurement": "IC50", "setting": "HIV-1 integrase [2]", "value": 6, "unit": "nM"}, {"measurement": "Kd", "setting": "HIV-1 integrase [3]", "value": 12, "unit": "nM"}, {"measurement": "Kd", "setting": "HIV-1 integrase [4]", "value": 2, "unit": "nM"}]}, {"binder": "P23 (ssRNA) RNA: GGGAGCUCAGAAUAAACGCUCAACCAGUCUUAUGGCGUUGCAAGAUAGGGGCGUUCGACAUGAGGCCCGGAUCCGGC", "values": [{"measurement": "Kd", "setting": "HIV-1 integrase [5]", "value": 25, "unit": "nM"}]}, {"binder": "P5 truncate lacking 1-6 and 64-77 (ssRNA) RNA: UCAGAAUAAACGCUCAACCAGUCUUGUGGCUUUGAAAGAGAGGAGUGUUCGACAUGA", "values": [{"measurement": "binding result", "setting": "HIV-1 integrase [6]", "value": "binds"}]}, {"binder": "P5 deletion of 56-77 (ssRNA) RNA: GGGAGCUCAGAAUAAACGCUCAACCAGUCUUGUGGCUUUGAAAGAGAGGAGUGUU", "values": [{"measurement": "binding result", "setting": "HIV-1 integrase [1]", "value": "no binding"}]}]}
